According to PMC10786891, “Massively parallel profiling of RNA-targeting CRISPR-Cas13d”:
Numbering of substitutions follows the chain as printed. Names may count otherwise.

T1: EsCas13d, nuclease-dead (Eubacterium siraeum, UniProt B0MS50, R295A;H300A;R849A;H854A)
T1 sequence: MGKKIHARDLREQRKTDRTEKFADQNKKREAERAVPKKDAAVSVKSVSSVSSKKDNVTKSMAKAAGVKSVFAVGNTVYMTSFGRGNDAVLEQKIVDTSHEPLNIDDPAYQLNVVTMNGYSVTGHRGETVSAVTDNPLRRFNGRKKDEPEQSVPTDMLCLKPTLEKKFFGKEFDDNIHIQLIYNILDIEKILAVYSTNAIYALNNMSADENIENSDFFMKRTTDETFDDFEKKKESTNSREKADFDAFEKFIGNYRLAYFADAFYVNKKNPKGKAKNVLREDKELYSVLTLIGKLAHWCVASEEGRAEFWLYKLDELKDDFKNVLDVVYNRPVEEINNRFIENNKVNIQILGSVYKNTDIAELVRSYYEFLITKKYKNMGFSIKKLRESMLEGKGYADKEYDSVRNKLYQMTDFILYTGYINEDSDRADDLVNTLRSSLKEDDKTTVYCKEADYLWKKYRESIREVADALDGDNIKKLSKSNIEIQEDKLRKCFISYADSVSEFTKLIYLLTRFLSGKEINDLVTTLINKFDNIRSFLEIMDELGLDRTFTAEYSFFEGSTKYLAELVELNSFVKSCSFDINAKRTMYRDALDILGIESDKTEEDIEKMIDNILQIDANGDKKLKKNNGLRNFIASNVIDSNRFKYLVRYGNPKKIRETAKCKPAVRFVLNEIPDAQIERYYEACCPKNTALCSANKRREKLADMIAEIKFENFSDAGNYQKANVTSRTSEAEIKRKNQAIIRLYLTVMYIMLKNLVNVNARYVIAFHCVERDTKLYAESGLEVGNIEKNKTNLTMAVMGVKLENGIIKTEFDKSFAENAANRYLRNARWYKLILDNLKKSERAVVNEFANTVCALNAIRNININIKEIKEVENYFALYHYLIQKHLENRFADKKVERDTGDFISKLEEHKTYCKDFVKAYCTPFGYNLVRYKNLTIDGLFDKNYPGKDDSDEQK

B1: target 3 insG 3' of 7,insG 3' of 2 (mixed)
RNA 1: CACCCGUGCAAAAUUGCAGGGGUCUAAAACGACCUGAAUAUUUCAGAUCAAA
RNA 2: GGGAAUGGAUCCACAUCUACGAAUUCGUUUUUGAUCUGAAAUAUUGCAGGUGCUGCAGAUCGGAAGAGCACACGU
B2: target 3 insU 3' of 4 (mixed)
RNA 1: B1 RNA 1
RNA 2: GGGAAUGGAUCCACAUCUACGAAUUCGUUUUUGAUCUGAAAUAUUCAGUGUCUGCAGAUCGGAAGAGCACACGU
B3: target 3 insG 3' of 5,insG 3' of 5 (mixed)
RNA 1: B1 RNA 1
RNA 2: B1 RNA 2 with G46C, C47A, A48G, U51G, G52U
B4: target 3 insG 3' of 7,insA 3' of 4 (mixed)
RNA 1: B1 RNA 1
RNA 2: B1 RNA 2 with G50A, U51G, G52U
B5: target 3 insU 3' of 22,insC 3' of 19 (mixed)
RNA 1: B1 RNA 1
RNA 2: GGGAAUGGAUCCACAUCUACGAAUUCGUUUUUUGCAUCUGAAAUAUUCAGGUCUGCAGAUCGGAAGAGCACACGU
B6: target 3 A5G,U7A (mixed)
RNA 1: B1 RNA 1
RNA 2: GGGAAUGGAUCCACAUCUACGAAUUCGUUUUUGAUCUGAAAUAUACGGGUCUGCAGAUCGGAAGAGCACACGU
B7: target 3 insA 3' of 8,insU 3' of 6 (mixed)
RNA 1: B1 RNA 1
RNA 2: B1 RNA 2 with U45A, G46U, A48U, G49A, U51G, G52U
B8: target 3 insA 3' of 10,insC 3' of 4 (mixed)
RNA 1: B1 RNA 1
RNA 2: B1 RNA 2 with U44A, G46U, G50C, U51G, G52U
B9: target 3 U2G,C16U (mixed)
RNA 1: B1 RNA 1
RNA 2: B6 RNA 2 with C36U, A45U, G47A, U50G
B10: target 3 insA 3' of 6,insG 3' of 5 (mixed)
RNA 1: B1 RNA 1
RNA 2: B1 RNA 2 with G46C, C47A, U51G, G52U
B11: target 3 A11G,A18G (mixed)
RNA 1: B1 RNA 1
RNA 2: B6 RNA 2 with A34G, A41G, A45U, G47A
B12: target 3 insC 3' of 3,insC 3' of 3 (mixed)
RNA 1: B1 RNA 1
RNA 2: B1 RNA 2 with G46C, C47A, A48G, G50C, U51C, G52U
B13: target 3 U7A,U8C (mixed)
RNA 1: B1 RNA 1
RNA 2: B6 RNA 2 with U44C, G47A
B14: target 3 insU 3' of 16,insA 3' of 2 (mixed)
RNA 1: B1 RNA 1
RNA 2: B1 RNA 2 with G38U, A39G, U42A, A43U, U44A, G46U, G52A
B15: target 3 insA 3' of 8,insA 3' of 6 (mixed)
RNA 1: B1 RNA 1
RNA 2: B1 RNA 2 with U45A, G46U, G49A, U51G, G52U
B16: target 3 insA 3' of 6 (mixed)
RNA 1: B1 RNA 1
RNA 2: B2 RNA 2 with G48A, U49G
B17: target 3 del1,del4 (mixed)
RNA 1: B1 RNA 1
RNA 2: GGGAAUGGAUCCACAUCUACGAAUUCGUUUUUGAUCUGAAAUAUUCAGUUGCAGAUCGGAAGAGCACACGU
B18: target 3 insG 3' of 8,insA 3' of 6 (mixed)
RNA 1: B1 RNA 1
RNA 2: B1 RNA 2 with U45G, G46U, G49A, U51G, G52U
B19: target 3 G3C,U8G (mixed)
RNA 1: B1 RNA 1
RNA 2: B6 RNA 2 with U44G, A45U, G47A, G49C
B20: target 3 insC 3' of 2,insG 3' of 1 (mixed)
RNA 1: B1 RNA 1
RNA 2: B1 RNA 2 with G46C, C47A, A48G, G50U, U51C, G52C, C53G
B21: target 3 insA 3' of 10,insC 3' of 5 (mixed)
RNA 1: B1 RNA 1
RNA 2: B1 RNA 2 with U44A, G46U, G49C, U51G, G52U
B22: target 3 C6A,A18G (mixed)
RNA 1: B1 RNA 1
RNA 2: B6 RNA 2 with A34G, A45U, C46A, G47A
B23: target 3 insU 3' of 13,insU 3' of 5 (mixed)
RNA 1: B1 RNA 1
RNA 2: B1 RNA 2 with A40U, U42A, A43U, U44A, G46U, G49U, U51G, G52U
B24: target 3 insA 3' of 8,insG 3' of 2 (mixed)
RNA 1: B1 RNA 1
RNA 2: B1 RNA 2 with U45A, G46U
B25: target 3 insA 3' of 4,insA 3' of 2 (mixed)
RNA 1: B1 RNA 1
RNA 2: B1 RNA 2 with G46C, C47A, A48G, G49A, G52A
B26: target 3 insC 3' of 22 (mixed)
RNA 1: B1 RNA 1
RNA 2: GGGAAUGGAUCCACAUCUACGAAUUCGUUUCUUGAUCUGAAAUAUUCAGGUCUGCAGAUCGGAAGAGCACACGU
B27: target 3 insC 3' of 11,insC 3' of 5 (mixed)
RNA 1: B1 RNA 1
RNA 2: B1 RNA 2 with U42C, A43U, U44A, G46U, G49C, U51G, G52U
B28: target 3 C6G,A9G (mixed)
RNA 1: B1 RNA 1
RNA 2: B6 RNA 2 with A43G, A45U, C46G, G47A
B29: target 3 G3U,C6G (mixed)
RNA 1: B1 RNA 1
RNA 2: B6 RNA 2 with A45U, C46G, G47A, G49U
B30: target 3 U20C,U22A (mixed)
RNA 1: B1 RNA 1
RNA 2: B6 RNA 2 with U30A, U32C, A45U, G47A
B31: target 1 U8G,U11C (mixed)
RNA 1: CACCCGUGCAAAAAUGCAGGGGUCUAAAACUGAGCGGAUAACCUCUCUAUGG
RNA 2: GGGAAUGGAUCCACAUCUACGAAUUCGUACCAUAGAGAGGCUAGCCGCUCACCGAGAUCGGAAGAGCACACGU
B32: target 1 C2G,A18C (mixed)
RNA 1: B31 RNA 1
RNA 2: B31 RNA 2 with A34C, C41U, G44U, C50G
B33: target 1 complement block 4-13 (mixed)
RNA 1: B31 RNA 1
RNA 2: GGGAAUGGAUCCACAUCUACGAAUUCGUACCAUAGAGACCAAUAGGCGUCACCGAGAUCGGAAGAGCACACGU

The binders below were run against T1, EsCas13d, nuclease-dead (assay: crRNA (strand 1, pre-loaded); Mg2+; 40 mM Tris-HCl pH 7.5, 150 mM NaCl, 6 mM MgCl2, 1 mM DTT, 0.1% Tween-20, 0.2 mg/ml BSA; 25 C; 10 min per concentration, then washed). Conditions: tags: His6-TwinStrep-SUMO cleaved; N-terminal SNAP kept (SNAP-Surface 488); label: 3' end held by stalled T7 RNA polymerase.
B1 was tested, and the Kd was 32.6 ± 5.4 nM.
In the case of B2, the Kd is reported as 4.39 ± 0.415 nM.
B3 was tested, and the Kd was 25.3 ± 5.25 nM.
Work on B4 yielded a Kd of 88 ± 17.5 nM.
For B5, the Kd was 60.5 ± 15.5 nM.
B6 was tested, and the Kd was 37 ± 5.5 nM.
For B7, the Kd was 34.2 ± 3.35 nM.
B8 gave a Kd of 90 ± 32 nM.
B9 showed a Kd of 21.6 ± 2.7 nM.
B10 was tested, and the Kd was 5.51 ± 0.325 nM.
B11 showed a Kd of 70 ± 25 nM.
In the case of B12, the Kd is reported as 39 ± 4 nM.
Work on B13 yielded a Kd of 59.5 ± 7 nM.
In the case of B14, the Kd is reported as 16.1 ± 1.9 nM.
B15 gave a Kd of 58.5 ± 6.5 nM.
In the case of B16, the Kd is reported as 7.8 ± 0.65 nM.
Binder B17 has a Kd of 18 ± 2.5 nM.
B18 gave a Kd of 43.5 ± 6 nM.
With B19 the Kd was 88 ± 16.5 nM.
With B20 the Kd was 52 ± 12.5 nM.
B21 gave a Kd of 74.5 ± 11.5 nM.
Work on B22 yielded a Kd of 55.5 ± 10.5 nM.
Binder B23 has a Kd of 106 ± 45.5 nM.
Work on B24 yielded a Kd of 36.5 ± 8.5 nM.
B25 showed a Kd of 33 ± 7 nM.
B26 showed a Kd of 21.4 ± 2.3 nM.
With B27 the Kd was 88 ± 25 nM.
With B28 the Kd was 46.5 ± 5.5 nM.
In the case of B29, the Kd is reported as 56.5 ± 11.5 nM.
B30 gave a Kd of 55 ± 12 nM.
Binder B31 has a Kd of 29.5 ± 3.1 nM.
Work on B32 yielded a Kd of 44 ± 4 nM.
For B33, the Kd was 55 ± 6 nM.
